The values that follow are results of earlier work, collected in US11590205B2, “Methods for producing stable therapeutic glucagon formulations in aprotic polar solvents” (Xeris Pharmaceuticals, Inc., priority 2015, dated 2023).

For this data set the following is noted: aqueous.

Regarding glucagon, the “solubility at neutral pH” value is listed as “essentially insoluble”.
